PMC5515580
Changes are numbered by the printed parent chain. In names and notes the source's numbering stands. One block for each binder: values may come before it.

Target: MAST3-HA (human) (UniProt O60307)
Sequence (O60307 313-1021): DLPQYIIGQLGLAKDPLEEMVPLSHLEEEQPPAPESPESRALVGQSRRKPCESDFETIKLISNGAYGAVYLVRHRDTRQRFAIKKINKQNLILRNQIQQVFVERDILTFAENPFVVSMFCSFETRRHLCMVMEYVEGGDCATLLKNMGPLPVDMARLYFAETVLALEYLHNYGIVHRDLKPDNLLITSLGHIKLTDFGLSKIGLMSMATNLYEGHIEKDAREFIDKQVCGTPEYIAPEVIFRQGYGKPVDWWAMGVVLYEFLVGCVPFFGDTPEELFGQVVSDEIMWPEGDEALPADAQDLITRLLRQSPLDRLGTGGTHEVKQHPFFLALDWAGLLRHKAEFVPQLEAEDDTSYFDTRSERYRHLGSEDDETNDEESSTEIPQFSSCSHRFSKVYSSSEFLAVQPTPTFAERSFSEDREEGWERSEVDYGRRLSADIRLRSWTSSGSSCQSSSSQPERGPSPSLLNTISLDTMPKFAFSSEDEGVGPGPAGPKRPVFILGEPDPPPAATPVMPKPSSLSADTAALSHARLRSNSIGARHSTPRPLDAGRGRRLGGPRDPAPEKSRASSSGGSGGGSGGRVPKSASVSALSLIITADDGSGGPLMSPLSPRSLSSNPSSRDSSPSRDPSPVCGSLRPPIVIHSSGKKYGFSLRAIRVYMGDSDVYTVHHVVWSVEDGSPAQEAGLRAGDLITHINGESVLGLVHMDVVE

Km of phosphorylation of Ser46 by immunoprecipitated MAST3 (32P incorporation, 10-500 nM substrate, 2 min; Figure 1b): 0.158 µM
B1: P-S88-ARPP-16 (natural protein)
chain: MEDKVTSPEKAEEAKLKARYPHLGQKPGGSDFLRKRLQKGQKYFDSGDYNMAKAKMKNKQLPTAAPDKTEVTGDHIPTPQDLPQRKPSLVASKLAG
modifications: phosphoserine at 88 (by PKA, to a maximal stoichiometry)

Km of phosphorylation of Ser46 by immunoprecipitated MAST3 (32P incorporation, 10-500 nM substrate, 2 min; Figure 1—figure supplement 1): 0.138 µM
B2: 6xHis-S88D-ARPP-16 (natural protein)
chain: B1 chain with S88D
